# Laboratory results from patent US20050154189A1 (MAXYGEN, published 2005).
# B1: Round 1 CD28BP-126 (ligand)
# chain: ITPKSVTKRVKETVMLSCDYSTSTEELTSLRIYWQKDSKMVLAILPGKVQVWPEYKNRTITDMNDNPRIVILALRLSDSGTYTCVIQKPDLKGAYKLEHLTSVRLMIRADFPVPTINDLGNPSPNIRRLICSTSGGFPRPHLYWLENGEELNATNTTVSQDPGTELYMISSELDFNVTNNHSIVCLIKYGELSVSQIFPWSKPKQEPPIDQLPFWVIIPVSGALVLTAVVLYCLACRHVARWKRTRRNEETVGTERLSPIYLGSAQSSG
# notes: also called R1clone 126; Clone 126
# B2: Round 2 CD28BP-4 (ligand)
# chain: ITPKSVTKRVKETVMLSCDYNTSTEELTSLRIYWQKDSKMVLAILPGKVQVWPEYKNRTITDMNDNPRIVILALRLSDSGTYTCVIQKPVLKGAYKLEHLASVRLMIRADFPVPTINDLGNPSPNIRRLICSTSGGFPRPHLCWLENGEELNATNTTVSQDPGTELYMISSELDFNVTNNHSIVCLIKYGELSVSQIFPWSKPKQEPPIDQLPFWVIIPVSGALVLTAVVLYCLACRHVARWKRTRRNEETVGTERLSPIYLGSAQSSG
# B3: Round 2 CD28A6-9 (ligand)
# chain: ITPKSVTKRVKETVMLSCDYNTSTEELTSLRIYWQKDSKMVLAILPGKVQVWPEYKNRTITDMNDNPRIVILALRLSDSGTYTCVIQKPVLKGAYKLEHLASVRLMIRADFPVPTINDLGNPSPNIRRLICSTSGGFPRPHLYWLENGEELNATNTTVSQDPGTELYMISSELDFNVTNNHSIVCLIKYGELSVSQIFPWSKPKQEPPIDQLPFLVIIPVSGALVLTAVVLYCLACRHVARWKRTRRNEETVGTERLSPIYLGSAQSSG
# B4: Round 2 CD28BP-5 (ligand)
# chain: ITPKSVTKRVKETVMLSCDYSTSTEELTSLRIYWQKDSKMVLAILPGKVQVWPEYKNRTITDMNDNPRIVILALRLSDKGTYTCVVQKPVLKGAYKLEHLTSVRLMIRADFPVPTINDLGNPSPNIRRLICSTSGGFPRPHLYWLENGEELNATNTTVSQDPGTELYMISSELDFNVTNNHSIVCLIKYGELSVSQIFPWSKPKQEPPIDQLPFWVIIPVSGALVLTAVVLYCLACRHVARWKRTRRNEETVGTERLSPIYLGSAQSSG
# B5: Round 2 CD28BP-2 (ligand)
# chain: ITPKSVTKRVKETVMLSCDYSTSTEELTSLRIYWQKDSKMVLAILPGKVQVWPEYKNRTITDMNDNPRIVILALRLSDSGTYTCVIQKPVLKGAYKLEHLASVRLMIRADFPVPTINDLGNPSPNIRRLICSTSGGFPRPHLYWLENGEELNATNTTLSQDPETKLYMISSELDFNVTNNHSIVCLIKYGELSVSQIFPWSKPKQEPPIDQLPFWVIIPVSGALVLTAVVLYRPACRHVARWKRTRRNEETVGTERLSPIYLGSAQSSG
# B6: Round 2 CD28A6-1 (ligand)
# chain: ITPKSVTKRVKETVMLSCDYNTSTEELTSLRIYWQKDSKMVLAILPGKVQVWPEYKNRTITDMNDNPRIVILALRLSDSGTYTCVIQKPVLKGAYKLEHLASVRLMIRADFPVPTINDLGNPSPNIRRLICSTSGGFPRPHLYWLENGEELNATNTTVSQDPETKLYMISSELDFNVTNNHSIVCLIKYGELSVSQIFPWSKPKQEPPIDQLPFRVIIPVSGALVLTAIVLYCLACRHVARWKRTRRNEETVGTERLSPIYLGSAQSSG
# B7: Round 2 CD28A8-4 (ligand)
# chain: ITPKSVTKRVKETVMLSCDYNTSTEELTSLRIYWQKDSKMVLAILPGKVQVWPEYKNRTITDMNDNPRIVILALRLSDSGTYTCVIQKPVLKGAYKLEHLTSVRLMIRADFPVPTINDLGNPSPNIRRLICSTSGGFPRPHLYWLENGEELNATNTTVSQDPGTELYMISSELDFNVTNNHSIVCLIKYGELSVSQIFPWSKPKQEPPIDQLPFWVIIPVSGALVLTAVVLYCLACRHVARWKRTRRNEETVGTERLSPIYLGSAQSSG
# B8: Round 2 CD28A4-5* (ligand)
# chain: ITPKSVTKRVKETVMLSCDYNTSTEELTSLRIYWQKDSKMVLAILPGKVQVWPEYKNRTITDMNDNPRIVILALRLSDSGTYTCVIQKPVLKGAYKLEHLTSVRLMIRADFPVPTINDLGNPSPNIRRLICSTSGGFPRPHLYWLENGEELNATNTTLSQDPETKLYMISSELDFNVTNNHSIVCLIKYGELSVSQIFPWSKPKQEPPIDQLPFWVIIPVSGALVLTAVVLYCLACRHVARWKRTRRNEETVGTERLSPIYLGSAQSSG
# B9: Round 2 CD28B2-8 (ligand)
# chain: ITPKSVTKRVKETVMLSCDYNTSTEELTSLRIYWQKDSKMVLAILPGKVQVWPEYKNRTITDMNDNPRIVILALRLSDKGTYTCVIQKPVLKGAYKLEHLASVRLMIRADFPVPTINDLGNPSPNIRRLICSTSGGFPRPHLYWLENGEELNATNTTVSQDPGTELYMISSELDFNVTNNHSIVCLIKYGELSVSQIFPWSKPKQEPPIDQLPFWVIIPVSGALVLTAVVLYCLACRHVARWKRTRRNEETVGTERLSPIYLGSAQSSG
# B10: Round 1 CTLA4BP-7 (ligand)
# chain: VIHVTNEVKEVATLSCGHNVSGEELAQTRIYWQKEKKMVLTMMYGDMNIWPEYKNRTIFDITNNLSIVILALRPSDEGTYECVVLKYEKDAFKREHLAEVMLSVKADFPTPSITDFEIPPSNIRRIICLTSGGFPEPRLAWMKDGEELNAISTTVSQDPGTELYAVSSKLDFNMTTNHSFMCLIKYGHLRVNQTFSWNTPKQEHFPDNLLPSWAITLISVNGIFVICCLTYCFAPRCRERRRNERLRRESVRPV
# notes: also called R1-7; R1 CTLA-4BP-7
# B11: Round 2 CTLA4 A-B4-6 (ligand)
# chain: ITPKSVTKRVKETVMLSCDYNTSTEELTSLRIYWQKDSKMVLAILPGKVQVWPEYKNRTITDMNDNPRIVILALRLSDKGTYTCVVQKNENGSFRREHLTSVTLSIRADFPVPTINDLGNPSPNIRRLICSTSGGFPRPHLYWLENGEELNATNTTLSQDPETKLYMISSELDFNMTSNHSFLCLVKYGDLTVSQTFYWQESKPTPSANQHLTWTIIIPVSAFGISVIIAVILTCLTCRNAAIRRQRRENEVEMQSCSQSP
# B12: Round 2 CTLA4 A-F1-6 (ligand)
# chain: ITPKSVTKRVKETVMLSCDYSTSTEELTSLRIYWQKDSKMVLAILPGKVQVWPEYKNRTITDMNDNPRIVILALRLSDKGTYTCVVQKNENGSFRREHLTSVRLMIRADFPVPTINDLGNPSPNIRRLICSTSGGFPRPHLYWLENGEELNATNTTLSQDPETKLYMISSELDFNMTSNHSFLCLVKYGDLTVSQTFYWQESKPTPSANQHLTWTIIIPVSAFGISVIIAVILTCLTCRNAAIRRQRRENEVEMQSCSQSP
# B13: Round 2 CTLA4 A-E2-6 (ligand)
# chain: ITPKSVTKRVKETVMLSCDYNTSTEELTSLRIYWQKDSKMVLAILPGKVQVWPEYKNRTITDMNDNPRIVILALRLSDSGTYTCVVQKNENGSFRREHLTSVRLMIRADFPVPTINDLGNPSPNIRRLICSTSGGFPRPHLYWLENGEELNATNTTLPQDPETKLYMISSELDFNMTSNHSFLCLVKYGDLTVSQTFYWQESKPTPSANQHLTWTIIIPVSAFGISVIIAVILTCLTCRNAAIRRQRRENEVEMQSCSQSP
# B14: Round 2 CTLA4 A-F10-1 (ligand)
# chain: ITPKSVTKRVKETVMLSCDYNTSTEELTSLRIYWQKDSKMVLAILPGKVQVWPEYKNRTITDMNDNPRIVILALRLSDKGTYTCVVQKNENGSFRREHLTSVTLSIRADFPVPTINDLGNPSPNIRRLICSTSGGFPRPHLYWLENGEELNATNTTLSQDPETKLYMISSELDFNMTSNHSFLCLVKYGDLTVSQTLYWQESKPTPSANQHLTWTIIIPVSAFGISVIIAVILTCLTCRNAAIRRQRRENEVEMQSCSQSP
# B15: Round 2 CTLA4 A-H4-5* (ligand)
# chain: ITPKSVTKRVKETVMLSCDYSTSTEELTSLRIYWQKDSKMVLAILPGKVQVWPEYKNRTITDMNDNPRIVILALRLSDKGTYTCVVQKNENGSFRREHLTSVTLSIRADFPVPSITDIGHPAPNVKRIRCSASGGFPEPRLYWLENGEELNATNTTVSQDPGTELYMISSELDFNVTNNHSIVCLIKYGELSVSQIFPWSKPKQEPPIDQLPFWVIIPVSGALVLTAVVLYCLACRHVARWKRTRRNEETVGTERLSPIYLGSAQSSG
# B16: Round 2 CTLA4 A-C9-9 (ligand)
# chain: SGITPKSVTKRVKETVMLSCDYSTSTEELTSLRIYWQKDSKMVLAILPGKVQVWPEYKNRTFPDIINNLSLMILALRLSDRGTYTCVVQKNENGSFRREHLTSVTLSIRADFPVPSITDIGHPAPNVKRIRCSASGGFPEPRLAWMEDGEELNAVNTTVDQDLDTELYSVGSELDFNVTNNHSIVCLIKYGELSVSQIFPWSKPKQEPPIDQLPFWVIIPVSGALVLTAVVLYCLARRHVARWKRTRRNEETVGTERLSPIYLGSAQSSG
# B17: Round 2 CTLA4BP-5x2-11d (ligand)
# chain: VIHVTKEVKEVATLSCGHNVSVEELAQTRIHWQKEKKMVLTMMSGDMNIWPEYKNRTIFDITNNLSIVILALRPSDEGTYECVVLKYEKDAFKREHLAEVMLSVKADFPTPSITDFEIPPSNIRRIICSTSGGFPEPHLFWLENGEELNAINTTVSQDPETELYTVSSKLDFNMTTDRSFVCLIKYGHLRVNQTFNWNTPKQEHFPDNLLPSWAITLISANGIFVICCLTYCFAPRCRERKSNETLRRESVRPV
# B18: Round 2 CTLA4BP-5x2-10c (ligand)
# chain: VIHVTKEVKEVATLSCGHNVSVEELAQTRIHWQKEKKMVLTMMSGDMNIWPEYKNRTIFDITNNLSIVILALRPSDEGTYECVVLKYEKDAFKREHLAEVMLSVKADFPTPSITDFEIPPSNIRRIICSTSGGFPEPHLSWLENGEELNAINTTVSQDPETELYTVSSKLDFNMTANHSFVCLIKYGHLRVNQTFNWNTPKQEHFPDNLLPSWAITLISVNGIFVICCLTYCFAPRCRERRNETLRRESVRPV
# Target: T1, Soluble CD28-Ig (human, UniProt P10747 19-152, biotin-conjugated (NHS-biotin) in the labelled-ligand FACS assays)
# T1 construct: extracellular domain; Bought from R&D Systems; also called sCD28-Ig; CD28-Ig Fc; not shown: Fc portion of human IgG1
# Assay: two-colour FACS profile on transfected cells; score of preference for CD28-Ig over CTLA-4-Ig vs WT hB7-1
row,Binder,Binding Score
1,B1,1
2,B2,2
3,B3,1
4,B4,2
5,B5,2
6,B6,1
7,B7,1
8,B8,1
9,B9,1

# Target: T2, Soluble CTLA-4-Ig (human, UniProt P16410 36-161, FITC-conjugated in the two-colour FACS assays; unlabelled and detected with FITC goat anti-human IgG in the concentration-dependent assay)
# T2 construct: extracellular domain; Bought from R&D Systems; also called sCTLA-4-Ig; CTLA-4-Ig Fc; not shown: Fc portion of human IgG1
# T2 sequence (P16410 36-161): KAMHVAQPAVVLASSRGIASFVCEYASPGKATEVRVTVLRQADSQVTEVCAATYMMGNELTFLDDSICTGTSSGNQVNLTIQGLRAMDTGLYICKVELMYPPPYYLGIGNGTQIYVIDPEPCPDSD
# Assay: two-colour FACS profile on transfected cells; score of preference for CTLA-4-Ig over CD28-Ig vs WT hB7-1
row,Binder,Binding Score
1,B10,1
2,B11,1
3,B12,1
4,B13,1
5,B14,1
6,B15,1
7,B16,0
8,B17,2
9,B18,2
